Tests used:
[1] = molecular target: light-activated rhodopsin (bovine) (UniProt P02699); experiment: ELISA, MBP fusion on light-activated rhodopsin
[2] = molecular target: human thrombin receptor (PAR1) (human) (UniProt P25116); experiment: ELISA, purified MBP-Gαq on reconstituted PAR1 with thrombin receptor activating peptide
β2 adrenergic receptor = experiment: ELISA of panned Gs library clones on reconstituted receptor

Sequence of light-activated rhodopsin (bovine) (P02699 whole entry, the tested form may be a part): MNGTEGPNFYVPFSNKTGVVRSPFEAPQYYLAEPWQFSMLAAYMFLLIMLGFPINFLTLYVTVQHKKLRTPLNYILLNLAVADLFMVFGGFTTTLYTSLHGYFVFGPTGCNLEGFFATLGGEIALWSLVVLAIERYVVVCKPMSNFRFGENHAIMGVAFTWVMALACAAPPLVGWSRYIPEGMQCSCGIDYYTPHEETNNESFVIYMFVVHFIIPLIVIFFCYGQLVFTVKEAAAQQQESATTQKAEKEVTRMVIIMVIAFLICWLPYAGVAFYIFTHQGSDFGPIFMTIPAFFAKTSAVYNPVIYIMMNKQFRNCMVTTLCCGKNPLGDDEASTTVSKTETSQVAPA
Sequence of human thrombin receptor (PAR1) (human) (P25116 42-425): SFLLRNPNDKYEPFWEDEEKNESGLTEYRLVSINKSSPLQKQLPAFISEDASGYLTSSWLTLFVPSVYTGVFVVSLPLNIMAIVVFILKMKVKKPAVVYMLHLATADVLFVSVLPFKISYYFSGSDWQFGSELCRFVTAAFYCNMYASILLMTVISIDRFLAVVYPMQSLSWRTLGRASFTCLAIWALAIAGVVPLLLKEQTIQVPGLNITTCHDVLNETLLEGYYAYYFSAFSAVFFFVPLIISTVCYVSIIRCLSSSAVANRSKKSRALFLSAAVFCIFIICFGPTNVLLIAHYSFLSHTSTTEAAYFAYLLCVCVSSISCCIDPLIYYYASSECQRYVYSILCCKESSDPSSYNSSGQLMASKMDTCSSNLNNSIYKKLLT

Molecule	ELISA (β2 adrenergic receptor)	other results
MBP-Gαt340-350K341R	–	IC50 [1]: 6 µM
maltose binding protein-Gαq (MBP-Gαq)	–	IC50 [2]: 214 nM
QRMPLRQYELL [AG9 …]	0.19	–
QGMQLRRFKLR [AG1 …]	0.435	–
QRVHLRQDELL [BAR2 …]	0.197	–
QRMPLRLFEFL [AG3 …]	0.217	–
QWMDLRQHELL [BAR3 …]	0.185	–
QGEHLRQLQLQ [AG2 …]	0.33	–
ERLHRRLFQLH [BAR8 …]	0.047	–
QRLHLRGYEFL [AG13 …]	0.054	–
PCIQLGQYESF [BAR40 …]	0.028	–
HRRHIGPFALL [BAR11 …]	0.048	–
QRLRLRKYRLF [BAR31 …]	0.026	–

The next lines start with results.

ELISA (β2 adrenergic receptor)	Molecule	other results
0.361	PRPRLLRFKIP [AG19 …]	–
0.155	QRMNLGPCGLL [AG18 …]	–
0.079	NCMKFRSCGLF [BAR20 …]	–
0.192	DRMHLWRFGLL [AG11 …]	–
0.291	QRLRLGPDELF [AG4 …]	–
0.218	QRIHRRPFKFF [BAR1 …]	–
0.431	RWLHWQYRGRG [AG20 …]	–

Source: patent US20080280308A1
